Measurements reported in publication PMC6218115 (2018).
Non-standard residues stand in square brackets, D forms with d. No end group written: not given here.

B1: cANK6r (peptide)
chain: cyclo([dR][dK][dR][dI][dR][dL][dV][dT][dK][dK][dK][dR][dR])
modifications: also: 3H-labelled tracer
B2: ANK6 (peptide)
chain: [dR][dK][dR][dI][dR][dL][dV][dT][dK][dK][dK][dR]-NH2
modifications: also: 3H-labelled tracer
B3: tANK6 (peptide)
chain: [dR][dK][dR][dI][dR][dL][dV][dT][dK][dK][dK][dR][dR][dK][dR][dI][dR][dL][dV][dT][dK][dK][dK][dR]-NH2
modifications: also: 3H-labelled tracer

Columns and labels:
[1] = molecular target: human serum albumin (HSA) (Homo sapiens, UniProt P02768); test: TRANSIL XL HSA bead binding with liquid scintillation counting
[2] = molecular target: alpha-1-acid glycoprotein (AGP) (Homo sapiens, UniProt P02763); test: TRANSIL XL AGP bead binding with liquid scintillation counting
Sequence of alpha-1-acid glycoprotein (AGP) (P02763 19-201): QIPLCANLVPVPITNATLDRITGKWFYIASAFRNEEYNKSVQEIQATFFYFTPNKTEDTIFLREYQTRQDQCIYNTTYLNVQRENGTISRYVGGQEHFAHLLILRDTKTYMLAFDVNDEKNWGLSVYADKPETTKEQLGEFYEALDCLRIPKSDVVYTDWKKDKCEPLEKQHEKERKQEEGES

Row | Binder | Kd [1] [µM] | Kd [2] [µM]
1 | B1 | 599 | 0.28
2 | B2 | – | 0.29
3 | B3 | 138 | 0.06
